Experimental data from the nanobody polyreactivity screen of Harvey et al. (2022).

Assay: yeast display, Sf9 membrane polyspecificity reagent, FACS + sequencing; frameworks hold sequencing errors
Method in brief: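 A synthetic nanobody library was expressed on Saccharomyces cerevisiae BJ5465 by galactose induction for 36–48 hours. The library was stained for 1 hour at 4 °C with 10% biotinylated, detergent-solubilized Sf9 membrane reagent and enriched with streptavidin microbeads before FACS. Low and high (top ~1%) gates were set on anti-HA fluorescence for expression and streptavidin fluorescence for reagent binding, and each polyreactivity label reflects the gate of origin.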

| Sequence | polyreactivity (PSR sort gate) |
| --- | --- |
| QVKLVESGGGLVQAGGSLRLSCAASGRIFIEYARGWYRQAPGKERELVASSTSSGGRTTYADSVKGRFTISRDNAKNTVYLQINSLKPEDTAVYYCNKDYYPRGHTRFGYWGVGTQVTVSS | low polyreactivity |
| QVKLVESGGGLVQAGGSLRLSCAASGRIFRYYVMGWYRQAPGKERELVAAITSGGSTYYADSVKGRFTISRDNAKNTVYLQMNSLKPEDTAVYYCNVVGRYGSFRSAEMNYWGQGTQVTVSS | high polyreactivity |
| QVKLVESGGGLVQAGGSLRLSCAASGRTFAWYTMGRYRQAPGKERALVAAISGSGGSTYYADSVKGRFTISRDNAKNTVYLQLNSLKPEDTDVYYCARRVDSYYCHTRYYYWGQGTQVTVSS | high polyreactivity |
| QVKLVESGGGLVQAGGSLRLSCAASGRTFKYYAMGWYRQAPGKERELVAAISWSGGSTYYADSVMGRFTISRDNAKNTVYLQMNSLKPEDTAVYYCAAVRNYHGTWYDYWGQGTQVTVSS | high polyreactivity |
| QVKLVESGGGLVQAGGSLRLSCAASGRTFPRYAMGWYRQAPGKERELVAVIYGGGTYYADSVKGRFTISRDNAKNTVYLQMNSLKPEDTSVYYCNARSYQSARFRGGYWGQGTQVTVSS | high polyreactivity |
| QVKLVESGGGLVQAGGSLRLSCAASGSIFALYAMGWYRQAPGKEREFVARISWGGGRTYYADSVKGRFTISRDNAQNTVYLQMNSLKPEDTAVYYCNAERAGTYSYDYWGQGTQVTVSS | high polyreactivity |
| QVKLVESGGGLVQAGGSLRLSCAASGSIFNTYVMGWYRQAPGKERELVAAITSSGGRTYYADSVKGRFTISRDNAKNTVYLQMNSLKPEDTAVYYCNTAQRWVGRNDYWGQGTQVTVSS | high polyreactivity |
| QVKLVESGGGLVQAGGSLRLSCAASGSIFWSYAMGWYRQAPGKEREFVPSITGSGGTTTYADSVKGRFTISLDNAKNTVYVQMNSLKPEDTAVYYCNARLHGWYHVYYIYDYWGQGTQVTVSS | low polyreactivity |
| QVKLVESGGGLVQAGGSLRLSCAASGSIFWYNAMGWYRQAPGKERELVAAIRWRGGSTYYADSVNGRFTISRDNAKNTVYLQMNSLKPEDTAVYYCAAQVYVSQMYTSYYYWGQGTQVTVSS | high polyreactivity |
| QVKLVESGGGLVQAGGSLRLSCAASGSIFYTYAMGWYRPAPGKERELVAAISSGGSTDYADSVKGRFTISRDNAKNTVYLQMNSLKPEDTAVYYCAAVAVELASEYDYWGQGTQVTVSS | low polyreactivity |
| QVKLVESGGGLVQAGGSLRLSCAASGSTFASYAMGWYRQDPGKQRELVAAITRSGGSSTYADSVKGRFTISRDNAKITVYLQMNSLKPEDTAVYYCAARYLYSYYVSYDYWGQGTQLTVSS | high polyreactivity |
| QVKLVESGGGLVQAGGSLRLSCAASGSTFFIYTKGLYRQAPGKEREFVAAISWTGGRTYYADSVKGRFTISRDNAKNTVYLQMNSLKPEDTAVYYCAARYKYSSYDYWGQGTQVTVSS | high polyreactivity |
| QVKLVESGGGLVQAGGSLRLSCAASGSTFPTNAMVCYRQAPGKERELVAGITEGGSSTYYADSVKGRFTISRDNAKNTVYLQMNSLKPEVTAVYYCAADVLWYGPFWVRQDDYWGQGTQVTVSS | high polyreactivity |
| QVKLVESGGGLVQAGGSLRLSCAASGSTFWIYAMAWYRQAPGKERELVAAISWRGGRTYYADSVKGRFTISRDNAKNTVYLQMNSLKPEDSAVYYCYAQKRDGSMGYWGQGTQVTVSS | high polyreactivity |
| QVKLVESGGGLVQAGGSLRLSCAASGSTFYKYTMGWNRQEPGKGRELVAAINWSGSTYYADSVKGRFTISRDNAKNTVYLQMNSLKTEDTAVYYCAATYIYRYDYWGQGTQVTVSS | high polyreactivity |
| QVKLVESGGGLVQAGGSLRLSCADSGRIFYIYAMGWYRQSPGKERELVAAISSGGTTNYADSVKGRLTISRDNAKNTVYLQMNSLKPEDTAVYYCACYWRSRNRFYWGQGTQVTVSS | high polyreactivity |
| QVKLVESGGGLVQAGGSLRLSCGASGSIFRWYALGWYRQAPGKERELVAAIDYSGGSTYYADSVKGRFTISRDNAKNTVYLQMNSLKPEDTAVYYCAATAFYGGFLRYDYWGQGTQVTVSS | low polyreactivity |
| QVKLVESGGGLVQAGGSLRLSCGASVGTFYRYSMVWFRQAPGKERELVAVISKRGGTTYYADSVKRRFTISRDNANNTVNLQMNSLKPEDTAVYYCADRPYYWGQGTQVTVSS | high polyreactivity |
| QVKLVESGGGLVQAGGSLRLSCPASGFIFYDYVMGWYRQAPGKERELVAAISSNGGSTYYADSVKGRFSISRDNAKYTVYLQMNSLKPEDTAVYYCAAEGKSYPWPWYFDYWGQGTQVTVSS | high polyreactivity |
| QVKLVESGGGLVQAGGSLRLSCPASGRIFYTNARGWSRQQPGQESEFVAAISYSGGTTYYADSVKGRFTISRDNAKNNVYLQMNSLKPEDTAVYYCARRYRSYYYRSKMDYWGQGTQVTVSS | high polyreactivity |
| QVKLVESGGGLVQAGGSLRLTCAASGSNFDINAMGWYRQAPGKERELVAAISWSGGDTYADSVKGRFTISRDNAKITVYLQMNCLKPEDTAVYYCDTGDPHEEQYYYDYCGQGTQVTVSS | low polyreactivity |
| QVKLVESGGGLVQAGGSRRLSCAASGLIFYSYAMGWSRQAPGKERELVAAISSRGGSTYYADSVKGRFTISRDNAKNTVYLQMNSLKPDDTAVYYCNAYFLLPHYDYWGQGTQVTVSS | low polyreactivity |

| Sequence | polyreactivity (PSR sort gate) |
| --- | --- |
| QVKLVESGGGLVQEGASLRLSCAASGRIFGNYAMGWYRQAPGKERELVAAIDLSGDSTYYADSVKGRFTISRDNAKNTVYLQMNSLKPEDTAVYYCAATDWFSEYYWGQGTQVTVSS | low polyreactivity |
| QVKLVESGGGVVQAGGSLSLSCAASGRIFGGNAMGWYRQAPGKERELVAAISRTGGSTYYADSVKGRFTISRDIAKNTVYLQMNSLKPEDTAVNYCNAVYRYAHPMEYWGQGTQVTVSS | high polyreactivity |
| QVKLVESGGVLVQAGGSLRITCAGSGRIFSRYVMGWYRQAPGKETEFVAYITWSGSSTFYADSVKGRFTISRDNAKNTGYLQMNSHKPEDSAVYFCAALGLLSPSPWGTHISEYDSWGQGTQVTVSS | low polyreactivity |
| QVKLVESGGVLVQAGGSLRLSCADSGRTFYPYAMGWYRQGPGKDRELVAAISRSGGSTYADSVKGRFTISRDNAKYTVYLQMNSLKPEDTAVYYCATRRKTYLSFNYDYWGQGTQVTVSS | low polyreactivity |
| QVKLVESGVGLVQAGGSLRLSCAASGSTLTRNAMGWYRQAPGKERELVAAITQRGGSTYYADSVKGRFTLSRDNAKNTVYLQMNSLKPEDTAVYYCNVRAFHKQYSEYDYWGQGTQVTVSS | high polyreactivity |
| QVLLQESGGGLVQAGGSLRLGCAASGTISPAYYMGRNHQAPGKEREFVAAITYGTNTYYADSVKGRFTISRDNAKNTVYLQMNSLKPEDTAVYYCSATAGYNGAHDYWGQGTQVTVSS | low polyreactivity |
| QVLLQESGGGLVQAGGSLRLGCAASGTISPAYYMGRSLQAPGKEREFVAAITYGTNTYYADSVKGRFTISRDNAKNTVYLQMNSLKPEDTAVYYCSATAGYNGAHDYWGQATQVTVSS | low polyreactivity |
| QVLLQESGGGLVQAGGSLRLGCAASGTISPAYYMGRYHQAPGQEREFVAAITYGTNTYYADSVKGRFTISRDNAKNTVYLQMNSLKPEDTAVYYCSATAGYNGAHDYWGQGTQVTVSS | low polyreactivity |
| QVLLQESGGGLVQAGGSLRLSCAASGNIFSAGGMGWYRQAPVNERELVAGIGTGTSTNYADRVKGRFTISRDNAKNTVYLQMNSLKPEDTAVDYCAAAYYSGLSHWYWGQGTQVTVSS | low polyreactivity |
| QVLLQESGGGLVQAGGSLRLSCAASGTISTDIRMGWYRLAPGKEREFVASIDGCSTTYYADSVKGRFTISRDNAKNTVYLQMNSLKPEDTAMYYCSAREATEFYLFYWGQGTQVTVSS | low polyreactivity |
| QVLLQESGGGLVQAGGSLRLSCAASGTISTDIRMGWYRLAPGKEREFVASIDGCSTTYYADSVKGRFTISRDNAKNTVYLQMNSLKPEDTEMYYCAAREATEFYLYYWGQGTQVTVSS | low polyreactivity |
| QVLLVDSGGGLVHAGGIHRLSCHASVGIFSWYDMGLYRQAPGKERELVAAISWSGGSTYYAYSVKGRFTISRDNAKNTVYLQMNSLKPEDTAVYYCAAYTADYYDYWGQGTQVTVSS | high polyreactivity |
| QVLLVEAGRGLVQAGGSLRLSCAASGSIVVGYAMGCYRQAPGKERELVATISYSGDSTYYADSVKGRFTISRDNAKNTVYLQMNSLNPEDSAVYYCATESNGSPYKGDYWGQGTQVTVSS | low polyreactivity |
| QVLLVESGGGLVQAGGSLRISCAASGRISSRNAMGWYRQAPGKERELVAGITSGGSTNYADSLKGRFTISRDNAKNTVYLQMNSLKPEDTAVYYCAKRSRTYRYGYDYWGQGTQVTVSS | high polyreactivity |
| QVLLVESGGGLVQAGGSLRLICAASGSIFGVYAMGWFRQAAGKDRELVAAISLSGTSTYYADSVKGRFTISRDNAKNTVYLQMNSLKAEDTAVYYCAAPWRLFSLYDYWGQGTQVTVSS | low polyreactivity |
| QVLLVESGGGLVQAGGSLRLSCAASGFIFYLNGMGWYRQAPGKERELVAAISGRGGRTYYADSVKGRFTISRDNAKNTVYLQMNSLIPEDTAVYYCAAQYVPSRYGYWGQGTQVTVSS | high polyreactivity |
| QVLLVESGGGLVQAGGSLRLSCAASGFTFGTNAMVWYRQAPGKERELVAAISSRGGSTYYADSVKGRFTISRDNAKNTVYLLMNSLNPEDTAVYYCARRVARRQHEYGYWGQGTQVTVSS | high polyreactivity |
| QVLLVESGGGLVQAGGSLRLSCASSGNTFYVNVMGWYRQAPGKEREFVAAISTRGVSTSYADSVKGRYTISRDNAKNTVYLDMNTLKPEDTAVYYCAASFRRPQPKGTTYGYWGQGTQVTVSS | high polyreactivity |
| QVLLVESGGGLVQAGGSLRLSFAASGITFYGYDMGWYRQATGKERELVAAITSDGITNYADSVKGRFTISRDNAKNTVYLQMNSLKPEDTAVYYCAADVSFYRRYEWYYYWGQGTQVTVSS | low polyreactivity |
| QVLLVESGGGLVQAGGSLSISCAASGSTFGYYPMGWYRQAPGKEREFVAAISSRDGSTFYADSVQGRFTISRDNAKNTVYLQMNSLKPEDTAVYYCAKVFFHTPIVPEYDYWGQGTQVTVSS | low polyreactivity |
| QVLLVESGRVLVQAGGSLRLSCAASVSIFANYAMARYIQAPGKERELVASITSSARRTFYADSVKGRFTISRDNAKNTVYLQMNSLKPEVTAVYYCAAKHRRRTVSTRYDDWGQGTQGTVSS | high polyreactivity |
